*: point of attachment. Biotin = O=C1N[C@H]2[C@H](CS[C@H]2CCCCC(=O)*)N1; AEEA = NCCOCCOCC(=O)O
B2: Bio-PepK-StA (peptide)
peptide: {Biotin-AEEA}-KIAALKEKIAALKEKIAALKE-NH2
SMILES: CC[C@H](C)[C@H](NC(=O)[C@H](CCCCN)NC(=O)COCCOCCNC(=O)CCCC[C@@H]1SC[C@@H]2NC(=O)N[C@@H]21)C(=O)N[C@@H](C)C(=O)N[C@@H](C)C(=O)N[C@@H](CC(C)C)C(=O)N[C@@H](CCCCN)C(=O)N[C@@H](CCC(=O)O)C(=O)N[C@@H](CCCCN)C(=O)N[C@H](C(=O)N[C@@H](C)C(=O)N[C@@H](C)C(=O)N[C@@H](CC(C)C)C(=O)N[C@@H](CCCCN)C(=O)N[C@@H](CCC(=O)O)C(=O)N[C@@H](CCCCN)C(=O)N[C@H](C(=O)N[C@@H](C)C(=O)N[C@@H](C)C(=O)N[C@@H](CC(C)C)C(=O)N[C@@H](CCCCN)C(=O)N[C@@H](CCC(=O)O)C(N)=O)[C@@H](C)CC)[C@@H](C)CC

Columns and labels:
Bio-PepK-StA = molecular target: B2; test: fluorescence polarisation
activated PepE-Bio = activated PepE-Bio (N-terminal acetyl; C-terminal Aoa-Aoa-Lys(biotin)-NH2; glutamate side chains activated with EDC/NHS (NHS esters)); test: cross-linking
Fluo-PepE = Fluo-PepE (fluorescein (5(6)-carboxyfluorescein)-Aoa (8-amino-3,6-dioxa-octanoic acid) on the N-terminus; C-terminal amide); test: fluorescence polarisation

{fluorescein-AEEA}-EIAALEREIAALEREIAAL-NH2 [PepE(-2C)]: binds (Bio-PepK-StA).

B1: Bio-PepK (peptide)
peptide: {Biotin-AEEA}-KIAALKEKIAALKEKIAALKE-NH2
SMILES: CC[C@H](C)[C@H](NC(=O)[C@H](CCCCN)NC(=O)COCCOCCNC(=O)CCCC[C@@H]1SC[C@@H]2NC(=O)N[C@@H]21)C(=O)N[C@@H](C)C(=O)N[C@@H](C)C(=O)N[C@@H](CC(C)C)C(=O)N[C@@H](CCCCN)C(=O)N[C@@H](CCC(=O)O)C(=O)N[C@@H](CCCCN)C(=O)N[C@H](C(=O)N[C@@H](C)C(=O)N[C@@H](C)C(=O)N[C@@H](CC(C)C)C(=O)N[C@@H](CCCCN)C(=O)N[C@@H](CCC(=O)O)C(=O)N[C@@H](CCCCN)C(=O)N[C@H](C(=O)N[C@@H](C)C(=O)N[C@@H](C)C(=O)N[C@@H](CC(C)C)C(=O)N[C@@H](CCCCN)C(=O)N[C@@H](CCC(=O)O)C(N)=O)[C@@H](C)CC)[C@@H](C)CC
B1: binds (activated PepE-Bio).

B2: binds (Fluo-PepE).

With {fluorescein-AEEA}-EIAALEREIAALEREI-NH2 [PepE(-5C)] the “fold drop in affinity against full-length PepE” value (shortened to “fold drop in affinity”) (Bio-PepK-StA) was about 40 fold.

For {fluorescein-AEEA}-EIAALEREIAALEREIA-NH2 [PepE(-4C)], the “fold drop in affinity” value (Bio-PepK-StA) was about 40 fold.

In the case of {fluorescein-AEEA}-EIAALEREIAALEREIAA-NH2 [PepE(-3C)], the “fold drop in affinity” value (Bio-PepK-StA) is reported as about 40 fold.

{fluorescein-AEEA}-EIAALEREIAALEREIAALE-NH2 [PepE(-1C)]: binds (Bio-PepK-StA).

— publication PMC10549240 (RSC Chemical Biology, 2023)
